Assay results taken from patent publication US20250171562A1.

Target: mixture of three Der p 2 specific recombinant human IgE clones H10, H12, P4E (human) (UniProt P01854)
Experiment: RBL-SX38 IgE displacement, FACS

mixture of three Der p 2 specific recombinant human IgE clones H10, H12, P4E (human), sequence (P01854 other isoform, or with tags, fused parts or gaps): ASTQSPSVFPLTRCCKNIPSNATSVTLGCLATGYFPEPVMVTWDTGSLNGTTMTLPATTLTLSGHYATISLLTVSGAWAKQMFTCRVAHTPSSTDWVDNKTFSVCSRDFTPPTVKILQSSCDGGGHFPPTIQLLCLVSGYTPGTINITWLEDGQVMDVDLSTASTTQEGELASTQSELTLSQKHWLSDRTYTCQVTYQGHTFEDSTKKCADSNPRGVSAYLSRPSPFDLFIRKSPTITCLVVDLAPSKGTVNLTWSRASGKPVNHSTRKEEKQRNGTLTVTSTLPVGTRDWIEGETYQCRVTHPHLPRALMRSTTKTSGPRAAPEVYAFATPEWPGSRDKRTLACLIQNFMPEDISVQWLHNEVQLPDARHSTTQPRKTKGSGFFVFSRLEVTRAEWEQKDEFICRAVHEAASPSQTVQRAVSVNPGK

Row | EC50 | Max effect/effect 1 µM | Binder
1 |  | 0% | sdAb E1 (VHH) VHH: DVQLQESGGGLVQAGGSLRLSCLASGRTFTTTSGYNMGWFRQAPGKEREFVAGIKWVSGSNRAYAESVKGRFTISRDNAKNTVYLQMNSLKPEDTAVYYCAAATGQSYVPIREYEYVYWGQGTQVTVS
2 |  | 22% | sdAb D2 (VHH) VHH: DVQLQESGGGLVEAGGSLRLSCVASGRTFSGWSMGWFRQAPGKEREFVAAISWVGSWIGGTVYSNSVKGRFTISRDNARTTVYLQMNSLKPEDTAVYFCAAANSETPRIFASEYDYWGQGTQVTVS
3 | 3 nM | 99% | NIgG4B1A1(RS) (Fc fusion) chain 1: QVQLQESGGGLVQTGGSLRLSCAVHGRTFSNTGMGWFRQAPGNERQFVAIISPSGTSTYYADSVKGRFTISRDPAKNTVYLQMNSLKMDDTAVYYCAASYGSNWSTLRHQRRNEYDAWGQGTQVAVSRSGPPCPPCPAPEFLGGPSVFLFPPKPKDTLMISRTPEVTCVVVDVSQEDPEVQFNWYVDGVEVHNAKTKPREEQFNSTYRVVSVLTVLHQDWLNGKEYKCKVSNKGLPSSIEKTISKAKGQPREPQVYTLPPCQEEMTKNQVSLWCLVKGFYPSDIAVEWESNGQPENNYKTTPPVLDSDGSFFLYSRLTVDKSRWQEGNVFSCSVMHEALHNHYTQKSLSLSLGK chain 2: EVQLLESGGGLVQPGGSLRLSCAASGFTFGNYDMAWVRQAPGKRPEWVSSIDTGGDITHYADSVKGRFTISRDNAKNTLYLQMNSLRPEDTAVYWCATDEEYALGPNEFDYYGQGTLVTVSSRSGPPCPPCPAPEFLGGPSVFLFPPKPKDTLMISRTPEVTCVVVDVSQEDPEVQFNWYVDGVEVHNAKTKPREEQFNSTYRVVSVLTVLHQDWLNGKEYKCKVSNKGLPSSIEKTISKAKGQPREPQVCTLPPSQEEMTKNQVSLSCAVKGFYPSDIAVEWESNGQPENNYKTTPPVLDSDGSFFLVSRLTVDKSRWQEGNVFSCSVMHEALHNHYTQKSLSLSLGK
4 |  | 26% | sdAb F6 (VHH) VHH: DVQLQESGGGLVQAGGSLRLSCAASGLTFGSYDMGWYRQAPGKQRELVGRIRNDGITYYADSVKGRFTMSRDNAKNTVYLQMNSLKPEDTAVYYCAADGTGLGHYDYWGQGTQVTVS
5 |  | 23% | sdAb B2 (VHH) VHH: QVQLVESGGGLVQAGGSLRLSCAVFGSTFSNNVADWYRQAPGKQRELVARISASGATREYGDSVKGRFTISRDDAKNTMYLQMNNLKPEDTAVYRCHKIEWEDLSRKDYWGQGTQVTVS
6 |  | 12% | sdAb D1 (VHH) VHH: DVQLQESGGGLVQAGGSLRLSCAASGLTFSRCDMGWFRQAPGKEREFVARISANGASTHYADFVKGRFTISRDNAKNTVYLQMNYLKPEDTAVYICAAARVPVTWQLYDYWGQGTQVTVS
7 |  | 17% | sdAb F4 (VHH) VHH: DVQLQESGGGLVQAGGSLRLSCAVSGLSFSSMGWFRQPPGKEREFVAAISLYSGSTYYADSVKGRFTISSDNAKSTVYLQMNSLKPEDAAVYFCAADRQRTWSTFYASRQATYNYWGQGTQVTVTS
8 |  | 54% | sdAb B1 (VHH) VHH: QVQLQESGGGLVQTGGSLRLSCAVHGRTFSNTGMGWFRQAPGNERQFVAIISPSGTSTYYADSVKGRFTISRDPAKNTVYLQMNSLKMDDTAVYYCAASYGSNWSTLRHQRRNEYDAWGQGTQVAVS
9 |  | 5.6% | sdAb F3 (VHH) VHH: DVQLQESGGGLVQAGGSLKLSCAASRGSLSRWDVAWFRQAPGKERSFVTRISWSGTTSYYADAVKGRFAISRDNAKNTVYLQMNSLKPEDTAVYYCAVALYGNRGYYDVNAHSYWGQGTQVTVS
10 |  | 7% | sdAb B3 (VHH) VHH: DVQLQESGGGLVQAGGSLRLSCAASGFIFRLAGMSWVRQAPGKGFEWVSGITMDGSTTNYADSVKGRFTISRDNSKNRLYLQMNSLKPEDTAVYYCARGAKGGYNDPRGQGTQVTVS

The next lines start with the binder.

Row | Binder | EC50 | Max effect/effect 1 µM
11 | A1A1(G4S)4 (VHH) EVQLLESGGGLVQPGGSLRLSCAASGFTFGNYDMAWVRQAPGKRPEWVSSIDTGGDITHYADSVKGRFTISRDNAKNTLYLQMNSLRPEDTAVYWCATDEEYALGPNEFDYYGQGTLVTVSGGGGSGGGGSGGGGSGGGGSEVQLLESGGGLVQPGGSLRLSCAASGFTFGNYDMAWVRQAPGKRPEWVSSIDTGGDITHYADSVKGRFTISRDNAKNTLYLQMNSLRPEDTAVYWCATDEEYALGPNEFDYYGQGTLVTVS | 402 nM | 45%
12 | A1D2(G4S)4 (bispecific antibody) EVQLLESGGGLVQPGGSLRLSCAASGFTFGNYDMAWVRQAPGKRPEWVSSIDTGGDITHYADSVKGRFTISRDNAKNTLYLQMNSLRPEDTAVYWCATDEEYALGPNEFDYYGQGTLVTVSGGGGSGGGGSGGGGSGGGGSDVQLQESGGGLVEAGGSLRLSCVASGRTFSGWSMGWFRQAPGKEREFVAAISWVGSWIGGTVYSNSVKGRFTISRDNARTTVYLQMNSLKPEDTAVYFCAAANSETPRIFASEYDYWGQGTQVTVS | 4.3 nM | 98%
13 | A1B2(G4S)4 (bispecific antibody) EVQLLESGGGLVQPGGSLRLSCAASGFTFGNYDMAWVRQAPGKRPEWVSSIDTGGDITHYADSVKGRFTISRDNAKNTLYLQMNSLRPEDTAVYWCATDEEYALGPNEFDYYGQGTLVTVSGGGGSGGGGSGGGGSGGGGSQVQLVESGGGLVQAGGSLRLSCAVFGSTFSNNVADWYRQAPGKQRELVARISASGATREYGDSVKGRFTISRDDAKNTMYLQMNNLKPEDTAVYRCHKIEWEDLSRKDYWGQGTQVTVS | 0.8 nM | 100%
14 | D2A1(G4S)4 (bispecific antibody) DVQLQESGGGLVEAGGSLRLSCVASGRTFSGWSMGWFRQAPGKEREFVAAISWVGSWIGGTVYSNSVKGRFTISRDNARTTVYLQMNSLKPEDTAVYFCAAANSETPRIFASEYDYWGQGTQVTVSGGGGSGGGGSGGGGSGGGGSEVQLLESGGGLVQPGGSLRLSCAASGFTFGNYDMAWVRQAPGKRPEWVSSIDTGGDITHYADSVKGRFTISRDNAKNTLYLQMNSLRPEDTAVYWCATDEEYALGPNEFDYYGQGTLVTVS | 78.7 nM | 83%
15 | A1B3(G4S)4 (bispecific antibody) EVQLLESGGGLVQPGGSLRLSCAASGFTFGNYDMAWVRQAPGKRPEWVSSIDTGGDITHYADSVKGRFTISRDNAKNTLYLQMNSLRPEDTAVYWCATDEEYALGPNEFDYYGQGTLVTVSGGGGSGGGGSGGGGSGGGGSDVQLQESGGGLVQAGGSLRLSCAASGFIFRLAGMSWVRQAPGKGFEWVSGITMDGSTTNYADSVKGRFTISRDNSKNRLYLQMNSLKPEDTAVYYCARGAKGGYNDPRGQGTQVTVS | 0.4 nM | 99%
16 | NIgG4B1A1(G4S)2 (Fc fusion) chain 1: QVQLQESGGGLVQTGGSLRLSCAVHGRTFSNTGMGWFRQAPGNERQFVAIISPSGTSTYYADSVKGRFTISRDPAKNTVYLQMNSLKMDDTAVYYCAASYGSNWSTLRHQRRNEYDAWGQGTQVAVSGGGGSGGGGSGPPCPPCPAPEFLGGPSVFLFPPKPKDTLMISRTPEVTCVVVDVSQEDPEVQFNWYVDGVEVHNAKTKPREEQFNSTYRVVSVLTVLHQDWLNGKEYKCKVSNKGLPSSIEKTISKAKGQPREPQVYTLPPCQEEMTKNQVSLWCLVKGFYPSDIAVEWESNGQPENNYKTTPPVLDSDGSFFLYSRLTVDKSRWQEGNVFSCSVMHEALHNHYTQKSLSLSLGK chain 2: EVQLLESGGGLVQPGGSLRLSCAASGFTFGNYDMAWVRQAPGKRPEWVSSIDTGGDITHYADSVKGRFTISRDNAKNTLYLQMNSLRPEDTAVYWCATDEEYALGPNEFDYYGQGTLVTVSSGGGGSGGGGSGPPCPPCPAPEFLGGPSVFLFPPKPKDTLMISRTPEVTCVVVDVSQEDPEVQFNWYVDGVEVHNAKTKPREEQFNSTYRVVSVLTVLHQDWLNGKEYKCKVSNKGLPSSIEKTISKAKGQPREPQVCTLPPSQEEMTKNQVSLSCAVKGFYPSDIAVEWESNGQPENNYKTTPPVLDSDGSFFLVSRLTVDKSRWQEGNVFSCSVMHEALHNHYTQKSLSLSLGK | 3 nM | 99%
17 | A1B1(G4S)4 (bispecific antibody) EVQLLESGGGLVQPGGSLRLSCAASGFTFGNYDMAWVRQAPGKRPEWVSSIDTGGDITHYADSVKGRFTISRDNAKNTLYLQMNSLRPEDTAVYWCATDEEYALGPNEFDYYGQGTLVTVSGGGGSGGGGSGGGGSGGGGSQVQLQESGGGLVQTGGSLRLSCAVHGRTFSNTGMGWFRQAPGNERQFVAIISPSGTSTYYADSVKGRFTISRDPAKNTVYLQMNSLKMDDTAVYYCAASYGSNWSTLRHQRRNEYDAWGQGTQVAVS | 1.4 nM | 100%
18 | B2A1(G4S)4 (bispecific antibody) QVQLVESGGGLVQAGGSLRLSCAVFGSTFSNNVADWYRQAPGKQRELVARISASGATREYGDSVKGRFTISRDDAKNTMYLQMNNLKPEDTAVYRCHKIEWEDLSRKDYWGQGTQVTVSGGGGSGGGGSGGGGSGGGGSEVQLLESGGGLVQPGGSLRLSCAASGFTFGNYDMAWVRQAPGKRPEWVSSIDTGGDITHYADSVKGRFTISRDNAKNTLYLQMNSLRPEDTAVYWCATDEEYALGPNEFDYYGQGTLVTVS | 5.8 nM | 92%
19 | B3A1(G4S)4 (bispecific antibody) DVQLQESGGGLVQAGGSLRLSCAASGFIFRLAGMSWVRQAPGKGFEWVSGITMDGSTTNYADSVKGRFTISRDNSKNRLYLQMNSLKPEDTAVYYCARGAKGGYNDPRGQGTQVTVSGGGGSGGGGSGGGGSGGGGSEVQLLESGGGLVQPGGSLRLSCAASGFTFGNYDMAWVRQAPGKRPEWVSSIDTGGDITHYADSVKGRFTISRDNAKNTLYLQMNSLRPEDTAVYWCATDEEYALGPNEFDYYGQGTLVTVS | 2 nM | 100%
20 | B1A1(G4S)4 (bispecific antibody) QVQLQESGGGLVQTGGSLRLSCAVHGRTFSNTGMGWFRQAPGNERQFVAIISPSGTSTYYADSVKGRFTISRDPAKNTVYLQMNSLKMDDTAVYYCAASYGSNWSTLRHQRRNEYDAWGQGTQVAVSGGGGSGGGGSGGGGSGGGGSEVQLLESGGGLVQPGGSLRLSCAASGFTFGNYDMAWVRQAPGKRPEWVSSIDTGGDITHYADSVKGRFTISRDNAKNTLYLQMNSLRPEDTAVYWCATDEEYALGPNEFDYYGQGTLVTVS | 1.4 nM | 100%
